# Experimental data: paper PMC3166722 (2011)
# T1: band 3cyt cytoplasmic domain (Homo sapiens, UniProt P02730)
# T1 chain: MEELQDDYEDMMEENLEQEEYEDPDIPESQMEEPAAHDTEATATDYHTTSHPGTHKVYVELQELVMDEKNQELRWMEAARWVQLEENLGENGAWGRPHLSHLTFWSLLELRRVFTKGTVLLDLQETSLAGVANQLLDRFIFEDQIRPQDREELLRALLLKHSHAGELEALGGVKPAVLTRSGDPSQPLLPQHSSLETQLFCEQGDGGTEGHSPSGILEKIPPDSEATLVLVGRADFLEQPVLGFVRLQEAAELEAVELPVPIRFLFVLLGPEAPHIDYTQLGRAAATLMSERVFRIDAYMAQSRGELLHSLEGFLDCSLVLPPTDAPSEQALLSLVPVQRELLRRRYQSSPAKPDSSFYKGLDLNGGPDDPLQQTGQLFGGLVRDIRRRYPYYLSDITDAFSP
# T2: GPCcyt cytoplasmic domain (Homo sapiens, UniProt P04921)
# T2 chain: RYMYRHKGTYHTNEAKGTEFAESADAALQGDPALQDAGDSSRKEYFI
# Key:
# Assay in all cases: resonant mirror detection (IAsys)
# [1] = molecular target: CaM (Homo sapiens, UniProt P0DP23)
# [2] = molecular target: T1, band 3cyt cytoplasmic domain
# [3] = molecular target: T2, GPCcyt cytoplasmic domain
Kd [1] [nM],Kd [2] [nM],Kd [3] [nM],Binder
11700,,,"4.1R135 (protein, EGTA (no Ca2+)) MTTEKSLVTEAENSQHQQKEEGEEAINSGQQEPQQEESCQTAAEGDNWCEQKLKASNGDTPTHEDLTKNKERTSESRGLSRLFSSFLKRPKSQVSEEEGKEVESDKEKGEGGQKEIEFGTSLDEEIILKAPIAAPEPELKTDPSLDLHSLSSAETQPAQEELREDPDFEIKEGEGLEECSKIEVKEESPQSKAETELKASQKPIRKHRNMHCKVSLLDDTVYECVVEKHAKGQDLLKRVCEHLNLLEEDYFGLAIWDNATSKTWLDSAKEIKKQVRGVPWNFTFNVKFYPPDPAQLTEDITRYYLCLQLRQDIVAGRLPCSFATLALLGSYTIQSELGDYDPELHGVDYVSDFKLAPNQTKELEEKVMELHKSYRSMTPAQADLEFLENAKKLSMYGVDLHKAKDLEGVDIILGVCSSGLLVYKDKLRINRFPWPKVLKISYKRSSFFIKIRPGEQEQYESTIGFKLPSYRAAKKLWKVCVEHHTFFRLTSTDTIPKSKFLALGSKFRYSGRTQAQTRQASALIDRPAPHFERTASKRASRSLDGAAAVDSADRSPRPTSAPAITQGQVAEGGVLDASAKKTVVPKAQKETVKAEVKKEDEPPEQAEPEPTEAWKVEKTHIEVTVPTSNGDQTQKLAEKTEDLIRMRKKKRERLDGENIYIRHSNLMLEDLDKSQEEIKKHHASISELKKNFMESVPEPRPSEWDKRLSTHSPFRTLNINGQIPTGEGPPLVKTQTVTISDNANAVKSEIPTKDVPIVHTETKTITYEAAQTDDNSGDLDPGVLLTAQTITSETPSSTTTTQITKTVKGGISETRIEKRIVITGDADIDHDQVLVQAIKEAKEQHPDMSVTKVVVHQETEIADE"
78,,,"4.1R135 (protein, Ca2+) MTTEKSLVTEAENSQHQQKEEGEEAINSGQQEPQQEESCQTAAEGDNWCEQKLKASNGDTPTHEDLTKNKERTSESRGLSRLFSSFLKRPKSQVSEEEGKEVESDKEKGEGGQKEIEFGTSLDEEIILKAPIAAPEPELKTDPSLDLHSLSSAETQPAQEELREDPDFEIKEGEGLEECSKIEVKEESPQSKAETELKASQKPIRKHRNMHCKVSLLDDTVYECVVEKHAKGQDLLKRVCEHLNLLEEDYFGLAIWDNATSKTWLDSAKEIKKQVRGVPWNFTFNVKFYPPDPAQLTEDITRYYLCLQLRQDIVAGRLPCSFATLALLGSYTIQSELGDYDPELHGVDYVSDFKLAPNQTKELEEKVMELHKSYRSMTPAQADLEFLENAKKLSMYGVDLHKAKDLEGVDIILGVCSSGLLVYKDKLRINRFPWPKVLKISYKRSSFFIKIRPGEQEQYESTIGFKLPSYRAAKKLWKVCVEHHTFFRLTSTDTIPKSKFLALGSKFRYSGRTQAQTRQASALIDRPAPHFERTASKRASRSLDGAAAVDSADRSPRPTSAPAITQGQVAEGGVLDASAKKTVVPKAQKETVKAEVKKEDEPPEQAEPEPTEAWKVEKTHIEVTVPTSNGDQTQKLAEKTEDLIRMRKKKRERLDGENIYIRHSNLMLEDLDKSQEEIKKHHASISELKKNFMESVPEPRPSEWDKRLSTHSPFRTLNINGQIPTGEGPPLVKTQTVTISDNANAVKSEIPTKDVPIVHTETKTITYEAAQTDDNSGDLDPGVLLTAQTITSETPSSTTTTQITKTVKGGISETRIEKRIVITGDADIDHDQVLVQAIKEAKEQHPDMSVTKVVVHQETEIADE"
,23,1330,4.1R135 (protein) MTTEKSLVTEAENSQHQQKEEGEEAINSGQQEPQQEESCQTAAEGDNWCEQKLKASNGDTPTHEDLTKNKERTSESRGLSRLFSSFLKRPKSQVSEEEGKEVESDKEKGEGGQKEIEFGTSLDEEIILKAPIAAPEPELKTDPSLDLHSLSSAETQPAQEELREDPDFEIKEGEGLEECSKIEVKEESPQSKAETELKASQKPIRKHRNMHCKVSLLDDTVYECVVEKHAKGQDLLKRVCEHLNLLEEDYFGLAIWDNATSKTWLDSAKEIKKQVRGVPWNFTFNVKFYPPDPAQLTEDITRYYLCLQLRQDIVAGRLPCSFATLALLGSYTIQSELGDYDPELHGVDYVSDFKLAPNQTKELEEKVMELHKSYRSMTPAQADLEFLENAKKLSMYGVDLHKAKDLEGVDIILGVCSSGLLVYKDKLRINRFPWPKVLKISYKRSSFFIKIRPGEQEQYESTIGFKLPSYRAAKKLWKVCVEHHTFFRLTSTDTIPKSKFLALGSKFRYSGRTQAQTRQASALIDRPAPHFERTASKRASRSLDGAAAVDSADRSPRPTSAPAITQGQVAEGGVLDASAKKTVVPKAQKETVKAEVKKEDEPPEQAEPEPTEAWKVEKTHIEVTVPTSNGDQTQKLAEKTEDLIRMRKKKRERLDGENIYIRHSNLMLEDLDKSQEEIKKHHASISELKKNFMESVPEPRPSEWDKRLSTHSPFRTLNINGQIPTGEGPPLVKTQTVTISDNANAVKSEIPTKDVPIVHTETKTITYEAAQTDDNSGDLDPGVLLTAQTITSETPSSTTTTQITKTVKGGISETRIEKRIVITGDADIDHDQVLVQAIKEAKEQHPDMSVTKVVVHQETEIADE
